Test results taken from patent publication US20140087995A1 (published 2014).
Numbered stars: 1 amine (or outer) side, 2 acyl side, 3 side chain; on linkers, the order of the positions; unused ones are H or OH. Bridge positions count the residues as written; N and C are the ends. Side chains are listed from the residue outwards. Ends that are not written are not given here. * marks the point of attachment. C20 diacid = O=C(O)CCCCCCCCCCCCCCCCCCC(=O)*; γGlu = O=C(O)[C@H](CCC(=O)[*:2])N[*:1]; AEEA = NCCOCCOCC(=O)O

T1: human amylin receptor (amylin 3(a) receptor: human calcitonin receptor with RAMP-3) (human, UniProt P30988 25-474; O60896 24-148)
T1 construct: whole, on cells; also called hAmylin-R; hAmylinR
T1 sequence (looked up) 1: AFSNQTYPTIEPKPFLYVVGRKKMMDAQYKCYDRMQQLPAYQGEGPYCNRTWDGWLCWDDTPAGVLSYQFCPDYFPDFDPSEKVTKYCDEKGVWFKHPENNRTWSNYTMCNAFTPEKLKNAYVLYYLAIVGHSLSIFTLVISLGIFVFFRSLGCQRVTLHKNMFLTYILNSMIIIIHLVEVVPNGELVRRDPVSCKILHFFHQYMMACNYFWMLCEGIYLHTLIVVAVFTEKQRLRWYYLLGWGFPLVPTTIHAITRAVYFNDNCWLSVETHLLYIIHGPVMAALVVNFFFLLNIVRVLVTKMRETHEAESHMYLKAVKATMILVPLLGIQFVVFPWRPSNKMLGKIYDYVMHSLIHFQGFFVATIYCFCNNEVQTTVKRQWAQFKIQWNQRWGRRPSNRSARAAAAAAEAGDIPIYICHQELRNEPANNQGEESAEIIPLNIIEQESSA
T1 sequence (looked up) 2: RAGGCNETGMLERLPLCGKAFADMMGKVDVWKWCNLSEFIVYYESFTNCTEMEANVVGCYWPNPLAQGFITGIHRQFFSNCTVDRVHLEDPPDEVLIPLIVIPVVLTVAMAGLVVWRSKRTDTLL

B1: N^ε1-[2-[2-[2-[[(4S)-4-carboxy-4-(19-carboxynonadecanoylamino)butanoyl]amino]ethoxy]ethoxy]acetyl]-[Arg17,Pro21,Pro27,Arg35]-h-amylin (peptide)
peptide: K([AEEA-γGlu-C20 diacid])CNTATCATQRLANFLRHSSPNFGAIPSSTNVGSRTY-NH2
modifications: disulfide 2-7; N-terminus assumed
SMILES: CC[C@H](C)[C@H](NC(=O)[C@H](C)NC(=O)CNC(=O)[C@H](Cc1ccccc1)NC(=O)[C@H](CC(N)=O)NC(=O)[C@@H]1CCCN1C(=O)[C@H](CO)NC(=O)[C@H](CO)NC(=O)[C@H](Cc1c[nH]cn1)NC(=O)[C@H](CCCNC(=N)N)NC(=O)[C@H](CC(C)C)NC(=O)[C@H](Cc1ccccc1)NC(=O)[C@H](CC(N)=O)NC(=O)[C@H](C)NC(=O)[C@H](CC(C)C)NC(=O)[C@H](CCCNC(=N)N)NC(=O)[C@H](CCC(N)=O)NC(=O)[C@@H](NC(=O)[C@H](C)NC(=O)[C@@H]1CSSC[C@H](NC(=O)[C@@H](N)CCCCNC(=O)COCCOCCNC(=O)CC[C@H](NC(=O)CCCCCCCCCCCCCCCCCCC(=O)O)C(=O)O)C(=O)N[C@@H](CC(N)=O)C(=O)N[C@@H]([C@@H](C)O)C(=O)N[C@@H](C)C(=O)N[C@@H]([C@@H](C)O)C(=O)N1)[C@@H](C)O)C(=O)N1CCC[C@H]1C(=O)N[C@@H](CO)C(=O)N[C@@H](CO)C(=O)N[C@H](C(=O)N[C@@H](CC(N)=O)C(=O)N[C@H](C(=O)NCC(=O)N[C@@H](CO)C(=O)N[C@@H](CCCNC(=N)N)C(=O)N[C@H](C(=O)N[C@@H](Cc1ccc(O)cc1)C(N)=O)[C@@H](C)O)C(C)C)[C@@H](C)O
notes: also called 38; compound 38
B2: N^ε1-[2-[2-[2-[[(4S)-4-carboxy-4-(19-carboxynonadecanoylamino)butanoyl]amino]ethoxy]ethoxy]acetyl]-[Arg17,Pro21,Pro27,Glu35]-h-amylin (peptide)
peptide: K([AEEA-γGlu-C20 diacid])CNTATCATQRLANFLRHSSPNFGAIPSSTNVGSETY-NH2
modifications: disulfide 2-7; N-terminus assumed
SMILES: CC[C@H](C)[C@H](NC(=O)[C@H](C)NC(=O)CNC(=O)[C@H](Cc1ccccc1)NC(=O)[C@H](CC(N)=O)NC(=O)[C@@H]1CCCN1C(=O)[C@H](CO)NC(=O)[C@H](CO)NC(=O)[C@H](Cc1c[nH]cn1)NC(=O)[C@H](CCCNC(=N)N)NC(=O)[C@H](CC(C)C)NC(=O)[C@H](Cc1ccccc1)NC(=O)[C@H](CC(N)=O)NC(=O)[C@H](C)NC(=O)[C@H](CC(C)C)NC(=O)[C@H](CCCNC(=N)N)NC(=O)[C@H](CCC(N)=O)NC(=O)[C@@H](NC(=O)[C@H](C)NC(=O)[C@@H]1CSSC[C@H](NC(=O)[C@@H](N)CCCCNC(=O)COCCOCCNC(=O)CC[C@H](NC(=O)CCCCCCCCCCCCCCCCCCC(=O)O)C(=O)O)C(=O)N[C@@H](CC(N)=O)C(=O)N[C@@H]([C@@H](C)O)C(=O)N[C@@H](C)C(=O)N[C@@H]([C@@H](C)O)C(=O)N1)[C@@H](C)O)C(=O)N1CCC[C@H]1C(=O)N[C@@H](CO)C(=O)N[C@@H](CO)C(=O)N[C@H](C(=O)N[C@@H](CC(N)=O)C(=O)N[C@H](C(=O)NCC(=O)N[C@@H](CO)C(=O)N[C@@H](CCC(=O)O)C(=O)N[C@H](C(=O)N[C@@H](Cc1ccc(O)cc1)C(N)=O)[C@@H](C)O)C(C)C)[C@@H](C)O
notes: also called 26; compound 26

Biological target: T1, human amylin receptor (amylin 3(a) …)
Assay: SPA displacement of 125I-rat amylin, hAmylin 3(a) receptor membranes
Method in brief: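 Cell membranes were prepared by homogenisation in Na-HEPES/EDTA buffer, pH 7.4, and stored at −80° C. They were then coupled to SPA beads at 35 ng/μL final and exposed to compounds in assay buffer containing CaCl2, MgCl₂, OA and Tween20. After 120 min at 25° C, plates were counted and IC₅₀ derived.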

Row | Binder | IC50 [nM]
1 | B1 | 0.249
2 | B2 | 0.532
